The values that follow come from paper doi:10.1101/2024.06.14.599074, “A higher order PUF complex is central to regulation of C. elegans germline stem cells” (bioRxiv, 2024).

Substitutions are numbered along the chain they refer to. Names may count otherwise. “And” between values parts separate entries of the source, which are not always exact repeats. Equal entries are not always repeated.

Test [1] deals with T1, C. elegans FBF-2 RBD+CT (residues 164–632) (C. elegans, UniProt Q09312 164-632).
T1 sequence (looked up): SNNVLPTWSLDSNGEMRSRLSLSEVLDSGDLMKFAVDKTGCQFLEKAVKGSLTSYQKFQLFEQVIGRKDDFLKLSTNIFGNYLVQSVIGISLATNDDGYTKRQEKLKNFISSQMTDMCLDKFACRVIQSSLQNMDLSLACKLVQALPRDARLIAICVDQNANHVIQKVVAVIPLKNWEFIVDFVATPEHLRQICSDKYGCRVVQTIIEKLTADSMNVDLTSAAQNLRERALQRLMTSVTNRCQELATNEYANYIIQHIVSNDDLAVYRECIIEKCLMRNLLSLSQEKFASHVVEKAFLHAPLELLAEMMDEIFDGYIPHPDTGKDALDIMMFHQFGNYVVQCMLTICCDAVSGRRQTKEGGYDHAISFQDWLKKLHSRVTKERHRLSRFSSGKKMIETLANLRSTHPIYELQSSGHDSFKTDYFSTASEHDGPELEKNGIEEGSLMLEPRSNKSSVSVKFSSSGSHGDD
Kind of test: cell-based or functional assay.

In test [2] the target is T1, C. elegans FBF-2 RBD+CT (residues …). Kind of test: ITC; LST-1 (100–400 μM) titrated from the syringe into the cell containing FBF-2 (10–30 μM); 20 °C; 20 mM HEPES pH 7.4, 150 mM NaCl, 0.5 mM TCEP; no RNA; one-site model; two technical replicates. To be noted: both partners purified.
The target of test [3] is T2, FBF-2 RBD protein (residue 164–575) (C. elegans, UniProt Q09312 164-575).
T2 construct: Tag cleaved with TEV protease (construct derived from an earlier pGEX6p FBF-2 RBD construct); source: E. coli, purified (as FBF-2 RBD+CT); for SEC-MALS and cryo-EM coexpressed with GST-fused LST-1^19-98 and purified as a complex
T2 sequence (looked up): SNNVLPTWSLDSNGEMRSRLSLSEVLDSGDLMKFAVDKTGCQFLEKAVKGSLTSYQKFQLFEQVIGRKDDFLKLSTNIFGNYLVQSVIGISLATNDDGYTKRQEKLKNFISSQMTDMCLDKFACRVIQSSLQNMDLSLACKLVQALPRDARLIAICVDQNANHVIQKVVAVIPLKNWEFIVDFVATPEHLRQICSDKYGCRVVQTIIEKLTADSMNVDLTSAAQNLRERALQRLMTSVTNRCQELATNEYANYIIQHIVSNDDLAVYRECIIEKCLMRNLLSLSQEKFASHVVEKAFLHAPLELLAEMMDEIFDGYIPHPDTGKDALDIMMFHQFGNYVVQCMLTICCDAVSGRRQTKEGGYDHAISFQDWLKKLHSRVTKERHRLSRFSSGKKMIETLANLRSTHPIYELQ
The description is as above. The note with it: both partners purified.

Test [4] deals with T1, C. elegans FBF-2 RBD+CT (residues …). As to the kind of experiment: SEC-MALS; purified FBF-2 RBD+CT or RBD/LST-1^19-98 protein (~30 μM) with 29-nt gld-1 FBEa-FBEa* RNA; Superdex-200 10/300 GL; 20 mM HEPES pH 7.4, 150 mM NaCl, 2 mM DTT. The note with it: both partners purified. A general note: SEC sorts molecules by how far they enter the pores of the column.
The target in test [5] is T2, FBF-2 RBD protein (residue 164–575). The description is as above. The note with it: both partners purified.
Test [6] has the same target. As to the kind of experiment: FRET or BRET; 2 μM unlabeled FBF-2 RBD pre-incubated with Cy5-labeled LST-1^19-98 (20, 40, 80 nM), then 20 nM 5′-Cy3-labeled gld-1 FBEa-FBEa* RNA; room temperature; FRET from Cy3 in the RNA to Cy5 in LST-1. The note with it: both partners purified. (In general: BRET reads energy transfer from a luciferase to a nearby fluorophore.)

B1: LST-1^19-98 (LST-1 residues 19–98, spanning PIM-A and PIM-B) (domain or fragment, C. elegans, UniProt P91820 19-98, looked up)
chain: STIAYSKSQHEAPKQLLQLRSEIKPLIPLNQPSNFWESSQDSGVLSSLSSSPQQRSGLRSQKLHLTYIEKNKRVRAMIPQ
notes: LST-1, C. elegans, residues 19–98 of the N-terminal intrinsically disordered region, with PIM-A and PIM-B; Codon-optimized synthetic cDNA in the pSMT3 vector; tag removed with Ulp1; also called LST-1 peptide (residues 19–98); source: E. coli BL21-CodonPlus (DE3)-RIL, purified (Ni-NTA, heparin, Ni-NTA pass, Superdex 75)
Broadly, the Kd is the equilibrium constant for the complex coming apart. By stoichiometry N is commonly meant a count of units in the complex or per binding partner. As for B1, in test [1], the “EMSA: RNA-binding affinity of FBF-2 RBD+CT for gld-1 FBEa-FBEa* RNA with 10 μM LST-1^19-98 against without LST-1” value amounted to 4 fold. Besides, in test [2], the Kd is 1100 nM and 1900 nM; the dH is -14.8 kcal/mol and -10.8 kcal/mol; the “stoichiometry N” value is 0.5 sites and 0.57 sites. In addition, in test [3], the Kd is 480 nM and 520 nM; the dH was -33.2 kcal/mol and -37.5 kcal/mol; the “stoichiometry N” value was determined as 0.46 sites.

B2: LST-1^19-98 from the GST fusion coexpressed with FBF-2 (domain or fragment, C. elegans, UniProt P91820 19-98, looked up)
chain: B1 chain
notes: LST-1, C. elegans, residues 19–98; GST cleaved off with TEV protease; also called GST-LST-1^19-98
B2: the “stoichiometry N” value in test [4] and in test [5] was 2 FBF-2 per LST-1 in each case.

B3: C26-labeled LST-1^19-98 (S26C, Cy5) (domain or fragment, C. elegans, UniProt P91820 19-98, looked up)
chain: B1 chain with S8C
modifications: Cy5 on C26 via cysteine-maleimide conjugation
notes: LST-1, C. elegans, residues 19–98, cysteine in place of S26, five residues upstream of PIM-A; Probably made like wild-type LST-1^19-98 (His6-SUMO, cleaved); source: purified
Turning to B3, in test [6], the binding result is on record as “binds”.

B4: C74-labeled LST-1^19-98 (S74C, Cy5) (domain or fragment, C. elegans, UniProt P91820 19-98, looked up)
chain: B1 chain with S56C
modifications: Cy5 on C74 via cysteine-maleimide conjugation
notes: LST-1, C. elegans, residues 19–98, cysteine in place of S74, five residues upstream of PIM-B; Probably made like wild-type LST-1^19-98 (His6-SUMO, cleaved); source: purified
Consider B4, for which, in test [6], the binding result is reported as “binds”.

B5: LST-1^19-98(B^m) (domain or fragment, C. elegans, UniProt P91820 19-98, looked up)
chain: B1 chain with K62A, L65A, Y67A
notes: LST-1, C. elegans, residues 19–98, PIM-B mutated, PIM-A intact; also called LST-1 B^m; K80A/L83A/Y85A triple mutant in PIM-B; source: E. coli, purified (same protocol as for WT protein)
Regarding B5, in test [2], the Kd is 24100 nM and 46200 nM; the dH is -11.1 kcal/mol and -11.5 kcal/mol; the “stoichiometry N” value was 1.06 sites and 0.89 sites. In addition, in test [3], the Kd is 1460 nM and 1540 nM; the dH was -12.1 kcal/mol and -12.5 kcal/mol; the “stoichiometry N” value was 0.83 sites and 0.86 sites.

B6: LST-1^19-98(A^m) (domain or fragment, C. elegans, UniProt P91820 19-98, looked up)
chain: B1 chain with K14A, L17A
notes: LST-1, C. elegans, residues 19–98, PIM-A mutated, PIM-B intact; also called LST-1 A^m; K32A/L35A double mutant in PIM-A; source: E. coli, purified (same protocol as for WT protein)
On to B6, for which, in test [2], the Kd was 3700 nM and 2800 nM; the dH was -11.4 kcal/mol and -11.5 kcal/mol; the “stoichiometry N” value was 1.02 sites and 0.98 sites. Also, in test [3], the Kd was 130 nM and 120 nM; the dH is -15.3 kcal/mol and -16.5 kcal/mol; the “stoichiometry N” value is 1.15 sites and 1.05 sites.
